Here are results for three molecules from patent US20240059799A1 (Pfizer, published 2024).

By Kd is commonly meant the constant that tells how readily two partners part at equilibrium. The term koff denotes a measure of how fast the partners let go of each other. Usually kon stands for the second-order rate constant of association. The term IC50 denotes the midpoint of a concentration-inhibition curve.

Assay [1] concerns the target T1, recombinant human TL1A (human, UniProt O95150 71-251).
T1 construct: Homotrimeric cytokine; biotinylated with Sulfo-NHS-biotin where captured for SPR, coated unlabelled in ELISA, soluble in bioassays; also called TNFSF15
T1 chain: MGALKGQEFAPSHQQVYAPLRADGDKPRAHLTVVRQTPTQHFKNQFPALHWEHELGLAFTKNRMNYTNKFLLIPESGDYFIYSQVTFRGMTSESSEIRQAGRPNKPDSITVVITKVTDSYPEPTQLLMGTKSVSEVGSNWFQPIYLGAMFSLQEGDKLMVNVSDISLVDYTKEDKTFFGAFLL
As to the kind of experiment: SPR, recombinant human TL1A.

A further assay deals with T2, bovine serum albumin (bovine, UniProt P02769 25-607).
T2 construct: also called BSA
T2 sequence (P02769 25-607 limits assumed): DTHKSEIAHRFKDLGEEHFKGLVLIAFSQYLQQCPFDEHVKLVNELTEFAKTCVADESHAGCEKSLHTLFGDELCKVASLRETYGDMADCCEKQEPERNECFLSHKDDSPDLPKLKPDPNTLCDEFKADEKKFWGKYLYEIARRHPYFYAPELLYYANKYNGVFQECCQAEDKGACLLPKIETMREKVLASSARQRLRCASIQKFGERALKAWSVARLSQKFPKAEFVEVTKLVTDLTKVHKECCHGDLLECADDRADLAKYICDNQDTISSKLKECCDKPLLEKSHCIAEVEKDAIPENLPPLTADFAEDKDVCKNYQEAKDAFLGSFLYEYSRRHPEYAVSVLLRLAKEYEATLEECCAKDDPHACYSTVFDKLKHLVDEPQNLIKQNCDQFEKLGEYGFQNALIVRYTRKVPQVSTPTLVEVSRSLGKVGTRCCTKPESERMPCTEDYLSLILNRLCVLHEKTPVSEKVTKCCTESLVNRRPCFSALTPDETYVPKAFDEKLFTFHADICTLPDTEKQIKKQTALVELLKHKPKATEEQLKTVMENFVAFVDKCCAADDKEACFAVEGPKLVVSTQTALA
In words: direct binding ELISA on plate-coated BSA (1 ug/mL), anti-human IgG-Fc HRP, OD450. On the procedure:
(§1) For the direct binding ELISA method to HSA or BSA, 96-well high binding plates (Corning, product number 3590) were coated with 1 μg/mL recombinant HSA or BSA in 100 μL/well in PBS overnight at 4° C. Plates were then blocked in PBS+0.02% casein solution and washed with PBS+0.05% Tween-20 following standard ELISA protocol. […] Plates were washed with PBS+0.05% Tween-20 following standard ELISA protocol, and goat anti-human IgG-Fc HRP conjugated secondary antibody (Pierce, #31413) diluted to 1:10,000 in assay buffer was added to plates and incubated for 1 hour at room temperature. Next, the plates were washed with PBS+0.05% Tween-20 following standard ELISA protocol, and then TMB substrate (BioFX Laboratories, catalog number TMBW-0100-01) was added to plates.
(§2) Reactions were stopped after approximately 5 minutes by adding 0.18 M ortho-phosphoric acid to each well and absorbance was read at 450 nm. […] For this method, samples diluted to 0.3 mg/mL were dispensed into the sample tray of a MicroCal VP-Capillary DSC with Autosampler (Malvern Instruments, Inc.), equilibrated for 5 minutes at 10° C. and then scanned up to 110° C. at a rate of 100° C. per/hour. A filtering period of 16 seconds was selected. Raw data was baseline corrected and the protein concentration was normalized. Origin Software 7.0 (Origin Lab Corporation, Northampton, MA) was used to fit the data to an MN2-State Model with an appropriate number of transitions.
A general note: An ELISA detects its analyte on a solid surface through an enzyme-linked reagent.

Another assay has as its target T3, recombinant mouse TL1A (mouse, UniProt Q5UBV8 75-252).
T3 construct: biotinylated with Sulfo-NHS-biotin and captured for SPR
T3 chain: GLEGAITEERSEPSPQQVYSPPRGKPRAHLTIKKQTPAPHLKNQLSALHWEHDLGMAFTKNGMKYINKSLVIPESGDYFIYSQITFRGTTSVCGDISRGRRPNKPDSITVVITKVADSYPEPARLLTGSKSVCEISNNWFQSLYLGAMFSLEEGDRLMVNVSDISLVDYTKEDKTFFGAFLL
In words: SPR 37 C, biotinylated TL1A captured, antibody injected. On the procedure:
(§3) For these analyses, kinetic assays were conducted at 37° C. using a collection rate of 10 Hz on a Biacore™ T200 instrument (GE Healthcare). […] The association phase was 90 seconds, and the dissociation phases were 1600 seconds over human, cynomolgus monkey and rabbit TL1A and 180 seconds for mouse and rat TL1A.

The target of assay [2] is T4, recombinant rat TL1A (rat, UniProt Q8K3Y7 76-252).
T4 construct: biotinylated with Sulfo-NHS-biotin and captured for SPR
T4 sequence: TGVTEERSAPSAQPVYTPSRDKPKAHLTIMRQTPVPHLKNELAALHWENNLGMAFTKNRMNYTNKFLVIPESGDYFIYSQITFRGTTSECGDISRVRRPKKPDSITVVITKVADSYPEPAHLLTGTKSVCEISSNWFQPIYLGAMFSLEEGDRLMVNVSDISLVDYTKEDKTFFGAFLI
Described as above. How it is done:
as §3

For assay [3], the target named is T5, recombinant cynomolgus monkey TL1A (cynomolgus monkey, UniProt O95150 72-251 (human entry)).
T5 construct: biotinylated with Sulfo-NHS-biotin and captured for SPR
T5 chain: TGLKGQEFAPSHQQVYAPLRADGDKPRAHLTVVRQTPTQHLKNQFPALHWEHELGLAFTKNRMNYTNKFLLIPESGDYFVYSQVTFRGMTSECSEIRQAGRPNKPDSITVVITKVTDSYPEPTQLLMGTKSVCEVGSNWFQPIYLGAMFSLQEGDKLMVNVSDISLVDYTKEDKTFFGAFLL
The assay is described as above. On the procedure: as §3

Assay [4] addresses T1, recombinant human TL1A. The description is as above. On the procedure:
as §3

Assay [5] has as its target T1, recombinant human TL1A. In words: cell-based or functional assay.
The target of assay [6] is T4, recombinant rat TL1A. As to the kind of experiment: SPR 37 C, biotinylated TL1A captured, antibody injected; approximate KD. On the procedure:
as §3

The target of a further assay is T6, human serum albumin (human, UniProt P02768 25-609).
T6 construct: also called HSA
As to the kind of experiment: direct binding ELISA on plate-coated HSA (1 ug/mL), anti-human IgG-Fc HRP, OD450. How it is done:
as §1, §2

For another assay, the target named is T7, cynomolgus monkey IL-12 (cynomolgus monkey).
T7 construct: Heterodimer p40/p35; Whole entries as named; also called IL-12 Cyno
T7 chain 1: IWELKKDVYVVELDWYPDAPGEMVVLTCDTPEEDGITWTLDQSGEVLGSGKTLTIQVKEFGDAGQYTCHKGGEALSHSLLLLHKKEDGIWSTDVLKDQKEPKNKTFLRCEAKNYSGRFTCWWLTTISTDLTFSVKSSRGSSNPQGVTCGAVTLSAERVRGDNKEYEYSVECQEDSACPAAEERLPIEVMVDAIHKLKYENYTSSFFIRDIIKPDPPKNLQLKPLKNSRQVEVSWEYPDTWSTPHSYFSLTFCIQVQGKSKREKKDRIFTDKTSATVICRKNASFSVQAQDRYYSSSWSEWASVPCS
T7 chain 2: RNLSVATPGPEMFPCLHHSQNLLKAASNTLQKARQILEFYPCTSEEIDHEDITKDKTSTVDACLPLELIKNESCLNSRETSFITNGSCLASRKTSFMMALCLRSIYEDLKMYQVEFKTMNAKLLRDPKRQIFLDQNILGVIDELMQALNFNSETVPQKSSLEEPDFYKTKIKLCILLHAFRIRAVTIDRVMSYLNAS
In words: SPR 37 C, antibody captured by anti-human Fc, cytokine injected. On the procedure:
(§4) For these analyses, kinetic assays were conducted at 37° C. using a collection rate of 10 Hz on a BIAcore™ T200 instrument (GE Healthcare). An anti-human IgG antibody (anti-human Fc, catalog number 10-005-098, Jackson ImmunoResearch) was amine coupled to all four flow cells of a carboxymethylated dextran coated sensor chip (GE Healthcare) using the manufacturer's recommended protocol.

Another assay has as its target T8, cynomolgus monkey IL-23 (cynomolgus monkey, limits assumed).
T8 construct: Heterodimer p40/p19; Whole entries as named; also called IL-23 Cyno
T8 chain 1: T7 chain 1
T8 chain 2: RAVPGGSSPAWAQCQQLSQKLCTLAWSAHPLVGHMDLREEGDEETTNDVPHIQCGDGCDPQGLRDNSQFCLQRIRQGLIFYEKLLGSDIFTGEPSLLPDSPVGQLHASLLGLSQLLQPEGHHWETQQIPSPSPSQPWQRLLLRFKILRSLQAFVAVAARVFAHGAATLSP
Described as above. How it is done: as §4

In another assay the target is T9, human IL-23 (human, UniProt P29460 23-328; Q9NPF7 20-189).
T9 construct: Heterodimer p40/p19; Whole entries as named; also called IL-23 Human; recombinant human IL-23
T9 sequence 1: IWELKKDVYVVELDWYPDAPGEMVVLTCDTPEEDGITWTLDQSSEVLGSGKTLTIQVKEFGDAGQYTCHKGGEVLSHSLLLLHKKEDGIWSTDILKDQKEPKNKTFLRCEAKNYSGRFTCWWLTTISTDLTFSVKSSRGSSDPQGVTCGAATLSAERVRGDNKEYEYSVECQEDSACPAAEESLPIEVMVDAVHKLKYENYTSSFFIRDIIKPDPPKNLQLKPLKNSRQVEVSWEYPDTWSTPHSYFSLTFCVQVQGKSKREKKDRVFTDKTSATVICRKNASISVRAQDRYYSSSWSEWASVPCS
T9 sequence 2: T8 chain 2 with A12T, R75H, P131L
The assay is described as above. On the procedure: as §4

A further assay concerns the target T10, human IL-12 (human, UniProt P29460 23-328; P29459 23-219).
T10 construct: Heterodimer p40/p35; also called IL-12 Human
T10 sequence 1: T9 sequence 1
T10 sequence 2: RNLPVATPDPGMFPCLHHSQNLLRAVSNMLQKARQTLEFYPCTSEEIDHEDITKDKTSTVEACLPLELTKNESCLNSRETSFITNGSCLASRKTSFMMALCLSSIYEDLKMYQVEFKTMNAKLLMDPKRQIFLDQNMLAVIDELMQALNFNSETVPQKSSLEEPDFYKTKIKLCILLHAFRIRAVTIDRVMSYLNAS
The description is as above. How it is done: as §4

Assay [7] concerns the target T1, recombinant human TL1A. In words: competition ELISA, coated TL1A, competitor bio-TL1A-0002.
The target of assay [8] is T1, recombinant human TL1A. As to the kind of experiment: cell-based or functional assay.
Assay [9] addresses T11, full-length human TL1A on CHO-K1 cells (human, UniProt O95150 1-251).
T11 construct: whole, on cells; also called cells over-expressing human TL1A
T11 sequence (looked up): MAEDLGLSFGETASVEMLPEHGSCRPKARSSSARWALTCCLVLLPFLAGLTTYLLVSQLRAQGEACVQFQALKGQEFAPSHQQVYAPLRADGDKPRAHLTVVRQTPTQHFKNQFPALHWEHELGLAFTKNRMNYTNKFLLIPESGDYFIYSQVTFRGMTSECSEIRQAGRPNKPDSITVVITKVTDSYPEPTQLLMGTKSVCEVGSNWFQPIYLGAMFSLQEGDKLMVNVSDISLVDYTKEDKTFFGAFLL
In words: flow cytometry, CHO-K1 cells expressing human TL1A, 133 nM; cells, antibody at 133 nM.

Substitutions are numbered along the chain they refer to.

B1: TL1A-0372 (bispecific antibody, human IgG1, kappa)
heavy 1: QVQLVQSGAEVKKPGASVKVSCKASGYDYTYYGISWVRQAPGQGLEWMGWISTYNTGTHYAPSLQGRVTMTTDTSTSTAYMELRSLRSDDTAVYYCARESYYGSGAFRGGMDVWGQGTTVTVSSASTKGPSVFPLAPSSKSTSGGTAALGCLVKDYFPEPVTVSWNSGALTSGVHTFPAVLQSSGLYSLSSVVTVPSSSLGTQTYICNVNHKPSNTKVDKKVEPKSCDKTHTCPPCPAPEAAGAPSVFLFPPKPKDTLMISRTPEVTCVVVDVSHEDPEVKFNWYVDGVEVHNAKTKPREEQYNSTYRVVSVLTVLHQDWLNGKEYKCKVSNKALPAPIEKTISKAKGQPREPQVCTLPPSREEMTKNQVSLWCLVKGFYPSDIAVEWESNGQPENNYKTTPPVLDSDGSFFLYSKLTVDKSRWQQGNVFSCSVLHEALHSHYTQKSLSLSPGK
heavy 2: not shown
light: not shown
notes: monovalent bispecific (null-arm) antibody, IgG1 KiH, LS
Take B1: the Kd with recombinant human TL1A [1] was 0.286 nM; in the assay with recombinant mouse TL1A, 295 nM; in assay [3], 1.27 nM; with recombinant human TL1A [4] it was 0.54 nM; with recombinant rat TL1A [6], about 1510 nM. The off-rate (koff) is 4.98e-05 s⁻¹ with recombinant human TL1A [1]; 0.00708 s⁻¹ in the assay with recombinant mouse TL1A; 0.0483 s⁻¹ with recombinant rat TL1A [2]; 0.000121 s⁻¹ in assay [3]; 6.21e-05 s⁻¹ with recombinant human TL1A [4]. For the same molecule, the kon was found to be 174000 M⁻¹ s⁻¹ with recombinant human TL1A [1]; 24000 M⁻¹ s⁻¹ with recombinant mouse TL1A; 32200 M⁻¹ s⁻¹ in the assay with recombinant rat TL1A [2]; 96400 M⁻¹ s⁻¹ in assay [3]; 114000 M⁻¹ s⁻¹ with recombinant human TL1A [4]. Moreover, the binding result with bovine serum albumin and with human serum albumin was “no binding (tested: 1e-6 M)” in each case. The “NFκB Bioassay IC50” value in the assay with recombinant human TL1A [5] is 1.47 nM.

B2: p40-0003 (antibody, human IgG1, kappa, V domains shown)
VH: EVQLVQSGAEVKKPGESLKISCKGSGYSFTTYWLGWVRQMPGKGLDWIGIMSPVDSDIRYSPSFQGQVTMSVDKSITTAYLQWNSLKASDTAMYYCARRRPGQGYFDFWGQGTLVTVSS
VL: DIQMTQSPSSLSASVGDRVTITCRASQGISSWLAWYQQKPEKAPKSLIYAASSLQSGVPSRFSGSGSGTDFTLTISSLQPEDFATYYCQQYNIYPYTFGQGTKLEIKR
notes: human IgG1 effector-function-minimized/kappa; also called anti-IL12p40 p40-0003 antibody; C230 (ustekinumab) variable regions
For the molecule B2, the Kd with cynomolgus monkey IL-12 was determined as 0.368 nM; with cynomolgus monkey IL-23, 0.317 nM; with human IL-23, 0.16 nM; with human IL-12, 0.156 nM.

B3: TL1A-0002 (antibody, human IgG1, kappa, V domains shown)
VH: QVQLVQSGAEVKKPGASVKVSCKASGYDFTYYGISWVRQAPGQGLEWMGWISTYNGNTHYARMLQGRVTMTTDTSTRTAYMELRSLRSDDTAVYYCARENYYGSGAYRGGMDVWGQGTTVTVSS
VL: EIVLTQSPATLSLSPGERATLSCRASQSVSSYLAWYQQKPGQAPRLLIYDASNRATGIPARFSGSGSGTDFTLTISSLEPEDFAVYYCQQRSNWPWTFGQGTKVEIKR
notes: human IgG1 effector-function-minimized/kappa; also called parental TL1A-0002
For B3, in the assay with recombinant human TL1A [7], the “Bioactivity relative to TL1A-0002” value was 1 fold and the half-maximal inhibitory concentration (IC50) was 5 nM. Further, in the assay with recombinant human TL1A [8], the “TF-1 NF-κB reporter cell bioassay IC50” value was 34.7 nM; the “TF-1 NF-κB reporter cell bioassay, Bioactivity relative to TL1A-0002” value came to 1 fold; the “Whole blood IFNγ assay IC50” value was 0.83 nM; the “Whole blood IFNγ assay, Bioactivity relative to TL1A-0002” value was determined as 1 fold. In [9], the binding result is on record as “binds”.
